According to US10088479B2, “Biomarker and uses thereof” (ISIS INNOVATION LIMITED, priority 2014, dated 2018):

B1: FBG: recombinant fibrinogen-like globe domain of human tenascin-C (protein)
chain: GLLYPFPKDCSQAMLNGDTTSGLYTIYLNGDKAEALEVFCDMTSDGGGWIVFLRRKNGRENFYQNWKAYAAGFGDRREEFWLGLDNLNKITAQGQYELRVDLRDHGETAFAVYDKFSVGDAKTRYKLKVEGYSGTAGDSMAYHNGRSFSTFDKDTDSAITNCALSYKGAFWYRNCHRVNLMGRYGDNNHSQGVNWFHWKGHEHSIQFAEMKLRPSNFRNLEGRRKRA
modifications: left off: small tags and cut ends
notes: recombinant fibrinogen-like globe domain of human tenascin-C

Experiments:
[1] = system: primary human macrophages; experiment: Cytokine synthesis (ELISA) in primary human macrophages stimulated with tenascin-C or its domains; format: cell-based; conditions: 24 h
Description: Human monocytes were isolated from peripheral blood (London Blood Bank) and macrophages were derived from monocytes after differentiation for 4 days with 100 ng/ml of M-CSF as previously described (Foxwell (1998)).
(§1) Immediately after isolation, RA membrane cells and macrophages were cultured at 1×10^5 cells/well in RPMI 1640 containing 10% (v/v) FBS and 100 U/ml (Units/ml) penicillin/streptomycin in 96-well tissue culture plates for 24 hours before stimulation. Synovial fibroblasts (used only at either passage number 2 or 3) were cultured at 1×10^4 cells/well in DMEM containing 10% (v/v) FBS and 100 U/ml penicillin/streptomycin in 96-well tissue culture plates for 24 hours before stimulation.
Cells were incubated for 24 hours at 37° C. with the indicated doses of tenascin-C and recombinant tenascin-C fragments (1.0 μM-1.0 nM). […]
(§2) Supernatants were subsequently examined for the presence of the cytokines TNF-α, IL-6, and IL-8 by enzyme-linked immunosorbent assay (ELISA) according to the manufacturer's instructions. Absorbance was read on a spectrophotometric ELISA plate reader (Labsystems Multiscan Biochromic, Vantaa, Finland) and analyzed using the Ascent software program (Thermo Labsystems, Altrincham, UK).

RA synovial fibroblasts = experiment: Cytokine synthesis (ELISA) in RA synovial fibroblasts stimulated with tenascin-C, FBG or LPS; format: cell-based, human; conditions: 24 h; for cytokine synthesis (IL-6, IL-8) in synovial fibroblasts: LPS 10 ng/ml
From the text: (§3) RA membrane cells (representing a mixed population of all synovial cell types) were to isolated from synovial membranes obtained from patients undergoing joint replacement surgery as previously described (Brennan (1989)). RA synovial fibroblasts were isolated from the mixed population of RA membrane cells as previously described (Brennan (1989)). The study was approved by the local Trust ethics committee (Riverside NHS Research Committee), and waste tissue (synovium after joint replacement surgery) was obtained only after receiving signed informed consent from the patient and anonymyzing the tissue to protect patient identity.
as §1
(§4) Cells were incubated for 24 hours at 37° C. with the indicated doses of tenascin-C and recombinant tenascin-C fragments (1.0 μM-1.0 nM). Cells were also stimulated where indicated with LPS (1 ng/ml for human macrophages, 10 ng/ml for human fibroblasts, RA membrane cells and HEKs, 100 ng/ml for MEFS and BMDMs and 10 ng/ml for HEKS), PAM3 (10 ng/ml for human macrophages, human fibroblasts, and HEKs, 100 ng/ml for MEFs and BMDMs), murine IL-1 (5 ng/ml for MEFS) and murine TNF-α (100 ng/ml for MEFS). Unless specifically stated otherwise rough LPS was used for in vitro studies.
as §2

serum from RA patients = experiment: Western blot of citrullinated tenascin-C probed with serum from RA patients or healthy controls; format: binding, human; conditions: sera from RA patients or normal healthy controls
Description: 33.33 ul of citrullination reaction (cit-TNC alone or cit-TNC combined with cit-FBG) was loaded into NuPAGE® Novex 4-12% Bis-tris gel using a 1.0 mm 2D single lane well.
After electrophoresis proteins were transferred to nitrocellulose and the membrane blocked and then cut into strips (up to 8 strips ˜0.7 cm wide). Strips were incubated with serum from RA patients or normal healthy individuals diluted 1:100 in 5% milk TBS-tween. Strips were incubated in 15 ml falcon tubes on rollers 1 h room temperature, then washed 3×5 min, 1×15 min in tubes with TBS-Tween. Strips were then incubated with secondary mouse anti-human Ig 1:5000 1 h in room temperature, then washed 3×5 min, 1×15 min in the dish with TBS-tween. Strips were finally incubated with ECL reagents and exposed to film.

[2] = system: synovial membranes from RA patients; experiment: Cytokine synthesis in RA synovial membrane cells stimulated with FBG; format: cell-based, human; conditions: FBG 1.0-0.01 μM, 24 h
From the text: as §3
Immediately after isolation, RA membrane cells and macrophages were cultured at 1×10^5 cells/well in RPMI 1640 containing 10% (v/v) FBS and 100 U/ml (Units/ml) penicillin/streptomycin in 96-well tissue culture plates for 24 hours before stimulation. […]
as §2

knee joint = experiment: Intra-articular injection of FBG into mouse knee joint, histology; format: in vivo, mice; conditions: for joint inflammation, histology: wild type mice
Description: Wild type mice were anesthetized by intraperitoneal injection of 150 μl of Hypnorm diluted 1:10 in sterile water and then injected with 100 ng, 1 or 3 μg FBG in 10 μl of sterile PBS into the right knee joint using a sterile 33-gauge microcannula. Control mice received an injection of 10 μl PBS alone or were not injected.
On days 3 and 7, mice were euthanized, the knee joints were excised and fixed in 10% (volume/volume) buffered formalin, decalcified, with 10% EDTA and processed to paraffin.
Coronal tissue sections (4 μm) were cut at 7 depths throughout the joint; 80 μm apart and stained with hematoxylin and eosin or Safranin-O to assess joint pathology. Histopathologic changes were scored using the following parameters as described in Van Lent (2006).
Inflammation (the influx of inflammatory cells into synovium (infiltrate) and the joint cavity (exudates), was graded using an arbitrary scale from 0 (no inflammation) to 3 (severe inflammation). Chondrocyte death was determined as the percentage of cartilage area containing empty lacunae in relation to the total area. Cartilage surface erosion was determined as the amount of cartilage lost in relation to the total cartilage area. Bone destruction was determined in 10 different areas of the total knee joint section. Destruction was graded on a scale of 0 (no damage) to 3 (complete loss of bone structure). Histological analysis was performed by an investigator who was blinded to the experimental groups. The mean score for each animal in an experimental group was calculated by averaging the histopathologic scores in at least 5 section depths per joint.

[3] = system: human dermal fibroblasts (HDF); experiment: Cell adhesion to coated FBG, crystal violet; format: cell-based; conditions: coated wells, 45 minutes
Description: (§5) (A) The sequence identified to bind integrin αvβ3 is shown in white (Yokoyama et al., 2000). Within this sequence two Arginines (shown in black) were identified to be citrullinated. (B) Wells of a 96 well plate were coated with different concentrations of FBG, citrullinated FBG (cFBG), FBG incubated in buffer without Calcium (FBG —Ca^2+), or FBG incubated without PAD (FBG —PAD). As a positive control wells were coated with Fibronectin (FN) (1 ug/ml), and coating with BSA (10 mg/ml) served as negative control. Plates were incubated with human dermal fibroblasts (HDF) or synovial fibroblasts from RA patients (RAF) for 45 minutes and adhesion was measured by determining absorbance of attached cells after staining with crystal violet (0.1%). Data are shown as the mean of at least four independent experiments+s.e.m., *=p<0.05, **=p<0.01.

[4] = system: synovial fibroblasts from RA joints (RAF); experiment: Cell adhesion to coated FBG, crystal violet; format: cell-based, human; conditions: coated wells, 45 minutes
Description: as §5

[5] = system: embryonic fibroblasts or macrophages; experiment: Cytokine synthesis in embryonic fibroblasts or macrophages from MyD88, TLR2 or TLR4 deficient mice; format: cell-based; conditions: FBG 1 μM, 24 h
Description: MEFs express high levels of mRNA of all 9 murine TLRs and are specifically and highly responsive to TLR ligand activation. […] MEFs were isolated from d13 embryos harvested from age-matched, pregnant female wild type, TLR2, TLR4 and null mice (as described in Todaro (1963)). Fibroblasts were cultured at 2×10^4 cells/well in DMEM containing 10% (v/v) FBS and 100 U/ml penicillin/streptomycin in 96-well tissue culture plates for 24 hours before stimulation.
BMDMs were derived by aspirating the femurs of age matched female wild type, TLR2 and TLR4 null mice as described in Butler (1999)) and culturing the cells for 7 days in DMEM, 20% (v/v) FBS, 10 ml/L (v/v) antibiotic-antimycotic solution PSA, 50 μM β-Mercaptoethanol and 10 ng/ml M-CSF. Macrophages were then cultured at 1×10^5 cells/well in DMEM, 20% (v/v) FBS, 10 ml/L (v/v) antibiotic-antimycotic solution PSA, 50 μM β-Mercaptoethanol in 96-well tissue culture plates for 24 hours before stimulation.
as §4, §2

Molecule | production of TNF-α, IL-6 and IL-8 ([1]; human macrophages) | TNF-α synthesis in fibroblasts (RA synovial fibroblasts) | cytokine synthesis (IL-6, IL-8) in synovial fibroblasts (RA synovial fibroblasts) | reactivity with sera in blots (serum from RA patients) | TNF-α synthesis in human macrophages ([1]; 1.0 μM tenascin-C domains) | synthesis of IL-6, IL-8 and TNF-α in RA synovial membranes [2] | joint inflammation (knee joint; TLR2 null mice, 1 μg FBG intra-articular, 3 days) | joint inflammation, histology (knee joint; 100 ng FBG intra-articular) | joint inflammation, histology (knee joint; 1 μg FBG intra-articular, 3 days) | joint inflammation, histology (knee joint; 3 μg FBG intra-articular) | adhesion of HDF [3] | adhesion of RAF [4] | cytokine synthesis in MyD88 deficient embryonic fibroblasts ([5]; MyD88 -/-) | cytokine synthesis in TLR2 deficient embryonic fibroblasts or macrophages ([5]; TLR2 -/-) | cytokine synthesis in TLR4 deficient embryonic fibroblasts or macrophages ([5]; TLR4 -/-)
tenascin-C: purified recombinant full-length human tenascin-C, native (non-citrullinated) | dose dependently stimulated | Neither LPS nor tenascin-C induced TNF-α synthesis | only induced IL-6 synthesis | No reactivity | – | – | – | – | – | – | – | – | – | – | –
B1 | – | – | did not induce IL-8 synthesis | – | stimulated | further enhanced synthesis of all these cytokines | able to induce joint inflammation | No inflammation or proteoglycan loss | inflammatory cell infiltration (FIG. 6f), mild synovitis, pannus formation (FIG. 6g) and proteoglycan loss (FIG. 6h) | A similar response | proadhesive | proadhesive | does not stimulate cytokine synthesis | unaffected | does not stimulate cytokine synthesis
